From patent EP4714976A1

Key:
[1] = target: extracellular domain of the FGFR2b protein (NP_075259.4) (UniProt P21802); experiment: phage ELISA
[2] = target: extracellular domain of FGFR2c protein (Example 1) (UniProt P21802); experiment: phage ELISA
Sequence of extracellular domain of FGFR2c protein (Example 1) (P21802 22-377): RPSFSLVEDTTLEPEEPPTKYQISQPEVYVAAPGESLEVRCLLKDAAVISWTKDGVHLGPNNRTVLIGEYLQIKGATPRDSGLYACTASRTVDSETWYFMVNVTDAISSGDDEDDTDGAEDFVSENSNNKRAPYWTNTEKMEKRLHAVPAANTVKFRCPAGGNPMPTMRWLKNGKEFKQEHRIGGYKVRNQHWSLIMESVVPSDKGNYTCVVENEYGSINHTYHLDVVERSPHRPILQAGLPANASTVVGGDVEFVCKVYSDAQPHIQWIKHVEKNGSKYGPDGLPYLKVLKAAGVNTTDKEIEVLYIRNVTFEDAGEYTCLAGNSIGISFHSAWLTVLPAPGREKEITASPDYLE

Sequence of extracellular domain of the FGFR2b protein (NP_075259.4) (P21802 other isoform, or with tags, fused parts or gaps): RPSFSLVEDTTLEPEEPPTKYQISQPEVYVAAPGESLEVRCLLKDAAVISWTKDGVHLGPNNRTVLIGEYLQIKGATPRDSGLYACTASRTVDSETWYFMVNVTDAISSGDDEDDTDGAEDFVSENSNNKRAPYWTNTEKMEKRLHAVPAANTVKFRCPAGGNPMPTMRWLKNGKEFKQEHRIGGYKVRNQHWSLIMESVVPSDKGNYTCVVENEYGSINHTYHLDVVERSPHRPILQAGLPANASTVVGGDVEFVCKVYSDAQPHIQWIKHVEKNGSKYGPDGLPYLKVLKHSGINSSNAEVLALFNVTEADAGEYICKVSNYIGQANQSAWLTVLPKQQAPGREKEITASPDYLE

## Negative control (Tables 1 and 2) (antibody)
[1]
  OD (450 nm) value: 0.024
[2]
  OD (450 nm) value: 0.045
